PMC4546403

Legend:
Details in all cases: glycan lost; control: wild type dSmo
[1] = EndoH-resistant post-ER vs EndoH-sensitive ER fraction, western
[2] = immunofluorescence, Hh-induced plasma membrane vs ER marker, Cl8
[3] = biotin-maleimide free-thiol labelling, NeutrAvidin capture (disulfide integrity)
[4] = western blot of Cl8 cell lysates

Protein | localisation_or_trafficking [1] | localisation_or_trafficking [2] | stability_or_folding [3] | expression_or_secretion [4]
Drosophila Smo (dSmo): N213Q (protein) parent chain: MQYLNFPRMPNIMMFLEVAILCLWVVADASASSAKFGSTTPASAQQSDVELEPINGTLNYRLYAKKGRDDKPWFDGLDSRHIQCVRRARCYPTSNATNTCFGSKLPYELSSLDLTDFHTEKELNDKLNDYYALKHVPKCWAAIQPFLCAVFKPKCEKINGEDMVYLPSYEMCRITMEPCRILYNTTFFPKFLRCNETLFPTKCTNGARGMKFNGTGQCLSPLVPTDTSASYYPGIEGCGVRCKDPLYTDDEHRQIHKLIGWAGSICLLSNLFVVSTFFIDWKNANKYPAVIVFYINLCFLIACVGWLLQFTSGSREDIVCRKDGTLRHSEPTAGENLSCIVIFVLVYYFLTAGMVWFVFLTYAWHWRAMGHVQDRIDKKGSYFHLVAWSLPLVLTITTMAFSEVDGNSIVGICFVGYINHSMRAGLLLGPLCGVILIGGYFITRGMVMLFGLKHFANDIKSTSASNKIHLIIMRMGVCALLTLVFILVAIACHVTEFRHADEWAQSFRQFIICKISSVFEEKSSCRIENRPSVGVLQLHLLCLFSSGIVMSTWCWTPSSIETWKRYIRKKCGKEVVEEVKMPKHKVIAQTWAKRKDFEDKGRLSITLYNTHTDPVGLNFDVNDLNSSETNDISSTWAAYLPQCVKRRMALTGAATGNSSSHGPRKNSLDSEISVSVRHVSVESRRNSVDSQVSVKIAEMKTKVASRSRGKHGGSSSNRRTQRRRDYIAAATGKSSRRRESSTSVESQVIALKKTTYPNASHKVGVFAHHSSKKQHNYTSSMKRRTANAGLDPSILNEFLQKNGDFIFPFLQNQDMSSSSEEDNSRASQKIQDLNVVVKQQEISEDDHDGIKIEELPNSKQVALENFLKNIKKSNESNSNRHSRNSARSQSKKSQKRHLKNPAADLDFRKDCVKYRSNDSLSCSSEELDVALDVGSLLNSSFSGISMGKPHSRNSKTSCDVGIQANPFELVPSYGEDELQQAMRLLNAASRQRTEAANEDFGGTELQGLLGHSHRHQREPTFMSESDKLKMLLLPSK | no change | no change | – | –
Drosophila Smo (dSmo): N213Q,N336Q (protein) parent chain: MQYLNFPRMPNIMMFLEVAILCLWVVADASASSAKFGSTTPASAQQSDVELEPINGTLNYRLYAKKGRDDKPWFDGLDSRHIQCVRRARCYPTSNATNTCFGSKLPYELSSLDLTDFHTEKELNDKLNDYYALKHVPKCWAAIQPFLCAVFKPKCEKINGEDMVYLPSYEMCRITMEPCRILYNTTFFPKFLRCNETLFPTKCTNGARGMKFNGTGQCLSPLVPTDTSASYYPGIEGCGVRCKDPLYTDDEHRQIHKLIGWAGSICLLSNLFVVSTFFIDWKNANKYPAVIVFYINLCFLIACVGWLLQFTSGSREDIVCRKDGTLRHSEPTAGENLSCIVIFVLVYYFLTAGMVWFVFLTYAWHWRAMGHVQDRIDKKGSYFHLVAWSLPLVLTITTMAFSEVDGNSIVGICFVGYINHSMRAGLLLGPLCGVILIGGYFITRGMVMLFGLKHFANDIKSTSASNKIHLIIMRMGVCALLTLVFILVAIACHVTEFRHADEWAQSFRQFIICKISSVFEEKSSCRIENRPSVGVLQLHLLCLFSSGIVMSTWCWTPSSIETWKRYIRKKCGKEVVEEVKMPKHKVIAQTWAKRKDFEDKGRLSITLYNTHTDPVGLNFDVNDLNSSETNDISSTWAAYLPQCVKRRMALTGAATGNSSSHGPRKNSLDSEISVSVRHVSVESRRNSVDSQVSVKIAEMKTKVASRSRGKHGGSSSNRRTQRRRDYIAAATGKSSRRRESSTSVESQVIALKKTTYPNASHKVGVFAHHSSKKQHNYTSSMKRRTANAGLDPSILNEFLQKNGDFIFPFLQNQDMSSSSEEDNSRASQKIQDLNVVVKQQEISEDDHDGIKIEELPNSKQVALENFLKNIKKSNESNSNRHSRNSARSQSKKSQKRHLKNPAADLDFRKDCVKYRSNDSLSCSSEELDVALDVGSLLNSSFSGISMGKPHSRNSKTSCDVGIQANPFELVPSYGEDELQQAMRLLNAASRQRTEAANEDFGGTELQGLLGHSHRHQREPTFMSESDKLKMLLLPSK | decreases | decreases | decreases | –
Drosophila Smo (dSmo): dSmoN336Q (protein) parent chain: MQYLNFPRMPNIMMFLEVAILCLWVVADASASSAKFGSTTPASAQQSDVELEPINGTLNYRLYAKKGRDDKPWFDGLDSRHIQCVRRARCYPTSNATNTCFGSKLPYELSSLDLTDFHTEKELNDKLNDYYALKHVPKCWAAIQPFLCAVFKPKCEKINGEDMVYLPSYEMCRITMEPCRILYNTTFFPKFLRCNETLFPTKCTNGARGMKFNGTGQCLSPLVPTDTSASYYPGIEGCGVRCKDPLYTDDEHRQIHKLIGWAGSICLLSNLFVVSTFFIDWKNANKYPAVIVFYINLCFLIACVGWLLQFTSGSREDIVCRKDGTLRHSEPTAGENLSCIVIFVLVYYFLTAGMVWFVFLTYAWHWRAMGHVQDRIDKKGSYFHLVAWSLPLVLTITTMAFSEVDGNSIVGICFVGYINHSMRAGLLLGPLCGVILIGGYFITRGMVMLFGLKHFANDIKSTSASNKIHLIIMRMGVCALLTLVFILVAIACHVTEFRHADEWAQSFRQFIICKISSVFEEKSSCRIENRPSVGVLQLHLLCLFSSGIVMSTWCWTPSSIETWKRYIRKKCGKEVVEEVKMPKHKVIAQTWAKRKDFEDKGRLSITLYNTHTDPVGLNFDVNDLNSSETNDISSTWAAYLPQCVKRRMALTGAATGNSSSHGPRKNSLDSEISVSVRHVSVESRRNSVDSQVSVKIAEMKTKVASRSRGKHGGSSSNRRTQRRRDYIAAATGKSSRRRESSTSVESQVIALKKTTYPNASHKVGVFAHHSSKKQHNYTSSMKRRTANAGLDPSILNEFLQKNGDFIFPFLQNQDMSSSSEEDNSRASQKIQDLNVVVKQQEISEDDHDGIKIEELPNSKQVALENFLKNIKKSNESNSNRHSRNSARSQSKKSQKRHLKNPAADLDFRKDCVKYRSNDSLSCSSEELDVALDVGSLLNSSFSGISMGKPHSRNSKTSCDVGIQANPFELVPSYGEDELQQAMRLLNAASRQRTEAANEDFGGTELQGLLGHSHRHQREPTFMSESDKLKMLLLPSK | – | – | – | increases
Drosophila Smo (dSmo): N336Q (protein) parent chain: MQYLNFPRMPNIMMFLEVAILCLWVVADASASSAKFGSTTPASAQQSDVELEPINGTLNYRLYAKKGRDDKPWFDGLDSRHIQCVRRARCYPTSNATNTCFGSKLPYELSSLDLTDFHTEKELNDKLNDYYALKHVPKCWAAIQPFLCAVFKPKCEKINGEDMVYLPSYEMCRITMEPCRILYNTTFFPKFLRCNETLFPTKCTNGARGMKFNGTGQCLSPLVPTDTSASYYPGIEGCGVRCKDPLYTDDEHRQIHKLIGWAGSICLLSNLFVVSTFFIDWKNANKYPAVIVFYINLCFLIACVGWLLQFTSGSREDIVCRKDGTLRHSEPTAGENLSCIVIFVLVYYFLTAGMVWFVFLTYAWHWRAMGHVQDRIDKKGSYFHLVAWSLPLVLTITTMAFSEVDGNSIVGICFVGYINHSMRAGLLLGPLCGVILIGGYFITRGMVMLFGLKHFANDIKSTSASNKIHLIIMRMGVCALLTLVFILVAIACHVTEFRHADEWAQSFRQFIICKISSVFEEKSSCRIENRPSVGVLQLHLLCLFSSGIVMSTWCWTPSSIETWKRYIRKKCGKEVVEEVKMPKHKVIAQTWAKRKDFEDKGRLSITLYNTHTDPVGLNFDVNDLNSSETNDISSTWAAYLPQCVKRRMALTGAATGNSSSHGPRKNSLDSEISVSVRHVSVESRRNSVDSQVSVKIAEMKTKVASRSRGKHGGSSSNRRTQRRRDYIAAATGKSSRRRESSTSVESQVIALKKTTYPNASHKVGVFAHHSSKKQHNYTSSMKRRTANAGLDPSILNEFLQKNGDFIFPFLQNQDMSSSSEEDNSRASQKIQDLNVVVKQQEISEDDHDGIKIEELPNSKQVALENFLKNIKKSNESNSNRHSRNSARSQSKKSQKRHLKNPAADLDFRKDCVKYRSNDSLSCSSEELDVALDVGSLLNSSFSGISMGKPHSRNSKTSCDVGIQANPFELVPSYGEDELQQAMRLLNAASRQRTEAANEDFGGTELQGLLGHSHRHQREPTFMSESDKLKMLLLPSK | decreases | abolishes | decreases | –
